These are literature values, as cited in paper PMC6188814.

This series deals with ALDH7A1 (Homo sapiens) (UniProt P49419). The experiment in a line: analytical ultracentrifugation.

pKd: −log10 of the molar value.

Turning to ALDH7A1 (from UniProt P49419), the negative logarithm of the Kd (pKd) (usually the Kd on a negative log10 scale, so that one unit is a factor of ten) is 4.80.
